From article PMC9325726
Where no end group is shown, it is not given here. The star is where a group is joined. αGalNAc = CC(=O)N[C@@H]1[C@@H](O)[C@@H](O)[C@@H](CO)O[C@@H]1*

Target: T1, wild-type AM0627^A21-E506 (Akkermansia muciniphila) (UniProt B2UPI7)
T1 sequence: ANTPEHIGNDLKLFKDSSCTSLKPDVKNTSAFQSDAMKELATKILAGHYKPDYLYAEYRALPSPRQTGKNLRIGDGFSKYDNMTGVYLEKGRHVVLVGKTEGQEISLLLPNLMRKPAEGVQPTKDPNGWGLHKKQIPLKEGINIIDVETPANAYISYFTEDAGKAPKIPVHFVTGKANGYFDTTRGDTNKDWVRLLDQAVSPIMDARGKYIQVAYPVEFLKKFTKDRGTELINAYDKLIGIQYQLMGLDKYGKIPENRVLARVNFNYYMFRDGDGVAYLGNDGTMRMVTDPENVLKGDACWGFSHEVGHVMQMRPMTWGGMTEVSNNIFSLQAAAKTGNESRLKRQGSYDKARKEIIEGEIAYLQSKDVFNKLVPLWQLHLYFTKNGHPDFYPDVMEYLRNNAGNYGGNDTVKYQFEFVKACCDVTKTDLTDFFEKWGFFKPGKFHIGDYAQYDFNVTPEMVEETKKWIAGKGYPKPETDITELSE

cleavage of P2 (500 μM) by 0.4 μM enzyme at 37 °C, MALDI-TOF time course, printed for 5 and 15 min: 35%
specific activity with P2 (500 μM), from the MALDI-TOF time course: 1.2 U/mg
B1: P2, bis-Tn glycopeptide (peptide)
peptide: TEAQT(αGalNAc)T(αGalNAc)PPPA-NH2
